The supplement of paper PMC9112550, “Optimization of the antimicrobial peptide Bac7 by deep mutational scanning” (BMC Biology, 2022)

System: Escherichia coli TOP10
Assay: shrunken log2 fold change of peptide-encoding DNA abundance (4.5 h post-induction vs induction); higher = less antimicrobial activity (less host growth inhibition)
Conditions: time post-induction: 4.5 h; library: site-saturation at positions 5, 18, 19, 20
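Note: peptides expressed intracellularly from a pBAD plasmid library in pooled LB shake-flask culture, induced with 0.3% L-arabinose, DNA abundance read by NGS, three biological replicates, DESeq2 with apeglm shrinkage.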

Sequence	shrunken log2 fold change
RRIRQRPPRLPRPRPRPWSLPRP	-0.0828
RRIRSRPPRLPRPRPRPAYYPRP	-0.495
RRIRRRPPRLPRPRPRPPSSPRP	0.303
RRIRKRPPRLPRPRPRPKKSPRP	0.575
RRIRFRPPRLPRPRPRPPCDPRP	0.0212
RRIRRRPPRLPRPRPRPPPLPRP	0.963
RRIRKRPPRLPRPRPRPREMPRP	-0.0629
RRIRVRPPRLPRPRPRPVKTPRP	-0.11
RRIRWRPPRLPRPRPRPNGLPRP	0.145
RRIRARPPRLPRPRPRPVRQPRP	0.855
RRIRNRPPRLPRPRPRPWMMPRP	-0.594
RRIRVRPPRLPRPRPRPFHTPRP	-1.18
RRIRARPPRLPRPRPRPIMTPRP	0.0421
RRIRGRPPRLPRPRPRPQECPRP	0.226
RRIRSRPPRLPRPRPRPQTRPRP	0.181
RRIRQRPPRLPRPRPRPFKQPRP	-0.24
RRIRIRPPRLPRPRPRPQGFPRP	-0.129
RRIRNRPPRLPRPRPRPTVKPRP	-0.00906
RRIRCRPPRLPRPRPRPITFPRP	-0.167
RRIRDRPPRLPRPRPRPPVWPRP	1.04
RRIRERPPRLPRPRPRPKMKPRP	-0.226
RRIRCRPPRLPRPRPRPNCCPRP	0.188
RRIRRRPPRLPRPRPRPKNHPRP	-0.0297
RRIRPRPPRLPRPRPRPPVYPRP	0.162
RRIRCRPPRLPRPRPRPILMPRP	-0.796

Sequence	shrunken log2 fold change
RRIRDRPPRLPRPRPRPDCLPRP	0.779
RRIRWRPPRLPRPRPRPMDEPRP	0.0255
RRIRARPPRLPRPRPRPVTAPRP	0.654
RRIRTRPPRLPRPRPRPKACPRP	0.0653
RRIRLRPPRLPRPRPRPYAGPRP	0.0235
RRIRWRPPRLPRPRPRPDAAPRP	2.23
RRIRHRPPRLPRPRPRPRNIPRP	-0.326
RRIRGRPPRLPRPRPRPVKHPRP	0.168
RRIRARPPRLPRPRPRPSCNPRP	-0.515
RRIRYRPPRLPRPRPRPYTAPRP	0.00143
RRIRRRPPRLPRPRPRPNDNPRP	-0.301
RRIRERPPRLPRPRPRPMVIPRP	-0.0351
RRIRDRPPRLPRPRPRPHWQPRP	-0.149
RRIRTRPPRLPRPRPRPGLWPRP	0.521
RRIRMRPPRLPRPRPRPTYGPRP	-0.00932
RRIRDRPPRLPRPRPRPKDAPRP	-0.018
RRIRFRPPRLPRPRPRPIIAPRP	-0.413
RRIRERPPRLPRPRPRPNHIPRP	-0.42
RRIRYRPPRLPRPRPRPQNTPRP	-1.07
RRIRVRPPRLPRPRPRPSWQPRP	-0.251
RRIRWRPPRLPRPRPRPDIVPRP	0.469
RRIRTRPPRLPRPRPRPLSAPRP	0.369
RRIRQRPPRLPRPRPRPGPRPRP	0.565
RRIRDRPPRLPRPRPRPYDPPRP	0.0101
RRIRTRPPRLPRPRPRPYKKPRP	-0.317

Sequence	shrunken log2 fold change
RRIRCRPPRLPRPRPRPEPRPRP	0.61
RRIRERPPRLPRPRPRPMGSPRP	0.00489
RRIRKRPPRLPRPRPRPGGVPRP	0.656
RRIRYRPPRLPRPRPRPWCSPRP	-0.504
RRIRCRPPRLPRPRPRPCDRPRP	-0.351
RRIRQRPPRLPRPRPRPGVLPRP	0.0476
RRIRKRPPRLPRPRPRPRGRPRP	1.04
RRIRFRPPRLPRPRPRPRMQPRP	0.206
RRIRWRPPRLPRPRPRPHREPRP	-0.0345
RRIRNRPPRLPRPRPRPCVCPRP	-0.00201
RRIRTRPPRLPRPRPRPRPVPRP	0.407
RRIRGRPPRLPRPRPRPQFYPRP	0.0417
RRIRERPPRLPRPRPRPTHNPRP	-0.206
RRIRQRPPRLPRPRPRPHINPRP	-0.921
RRIRIRPPRLPRPRPRPNWDPRP	-0.0401
RRIRGRPPRLPRPRPRPIHFPRP	-0.252
RRIRLRPPRLPRPRPRPICFPRP	0.104
RRIRCRPPRLPRPRPRPAYWPRP	0.293
RRIRERPPRLPRPRPRPDEHPRP	-0.274
RRIRVRPPRLPRPRPRPVMSPRP	-0.213
RRIRFRPPRLPRPRPRPCMFPRP	-0.556
RRIRDRPPRLPRPRPRPEAAPRP	1.84
RRIRMRPPRLPRPRPRPKFFPRP	0.0606
RRIRSRPPRLPRPRPRPWPIPRP	0.0295
RRIRRRPPRLPRPRPRPICLPRP	0.12

Sequence	shrunken log2 fold change
RRIRYRPPRLPRPRPRPIVPPRP	0.0202
RRIRDRPPRLPRPRPRPAATPRP	1.9
RRIRERPPRLPRPRPRPYHVPRP	0.0464
RRIRDRPPRLPRPRPRPCKKPRP	-0.00395
RRIRQRPPRLPRPRPRPHKSPRP	-0.0741
RRIRYRPPRLPRPRPRPPNHPRP	-0.626
RRIRARPPRLPRPRPRPIWNPRP	-0.0575
RRIRHRPPRLPRPRPRPFITPRP	-0.799
RRIRNRPPRLPRPRPRPGIYPRP	-0.105
RRIRFRPPRLPRPRPRPIYAPRP	-0.143
RRIRKRPPRLPRPRPRPAFQPRP	0.107
RRIRCRPPRLPRPRPRPVMHPRP	-0.212
RRIRDRPPRLPRPRPRPLRDPRP	0.537
RRIRNRPPRLPRPRPRPGNLPRP	-0.186
RRIRWRPPRLPRPRPRPFIVPRP	-0.325
RRIRLRPPRLPRPRPRPQPTPRP	0.0811
RRIRKRPPRLPRPRPRPHPCPRP	-0.22
RRIRPRPPRLPRPRPRPLALPRP	0.193
RRIRSRPPRLPRPRPRPLLFPRP	-0.129
RRIRYRPPRLPRPRPRPWFLPRP	-1.18
RRIRQRPPRLPRPRPRPPMCPRP	-0.213
RRIRGRPPRLPRPRPRPYYFPRP	0.0211
RRIRKRPPRLPRPRPRPDVRPRP	0.0826
RRIRCRPPRLPRPRPRPYEPPRP	-0.151
RRIRWRPPRLPRPRPRPGVHPRP	0.135

Sequence	shrunken log2 fold change
RRIRERPPRLPRPRPRPCVLPRP	0.0248
RRIRFRPPRLPRPRPRPIWGPRP	0.0125
RRIRERPPRLPRPRPRPNEGPRP	-0.0857
RRIRERPPRLPRPRPRPIARPRP	-0.0237
RRIRNRPPRLPRPRPRPWAAPRP	-0.109
RRIRQRPPRLPRPRPRPKWPPRP	0.166
RRIRNRPPRLPRPRPRPLDEPRP	0.126
RRIRYRPPRLPRPRPRPETFPRP	-0.0918
RRIRNRPPRLPRPRPRPTIYPRP	-0.106
RRIRHRPPRLPRPRPRPFEQPRP	-0.283
RRIRWRPPRLPRPRPRPGCAPRP	0.948
RRIRVRPPRLPRPRPRPDVEPRP	0.372
RRIRGRPPRLPRPRPRPKSHPRP	0.536
RRIRERPPRLPRPRPRPRNFPRP	-0.456
RRIRERPPRLPRPRPRPLVSPRP	-0.055
RRIRTRPPRLPRPRPRPRWRPRP	0.483
RRIRMRPPRLPRPRPRPNTHPRP	0.136
RRIRERPPRLPRPRPRPYYGPRP	-0.127
RRIRYRPPRLPRPRPRPRTKPRP	0.011
RRIRERPPRLPRPRPRPQEFPRP	-0.0119
RRIRVRPPRLPRPRPRPTSAPRP	0.0866
RRIRPRPPRLPRPRPRPAICPRP	0.0446
RRIRIRPPRLPRPRPRPFALPRP	-0.178
RRIRHRPPRLPRPRPRPEDSPRP	0.0648
RRIRSRPPRLPRPRPRPRMRPRP	0.91
